Measured values from patent publication US20090098076A1, “Method For the Production of a Keratin-Binding Effector Molecule” (BASF SE, priority 2005, published 2009).

How the values were obtained:
[1] = tested on: skin keratin; assay: Qualitative binding to skin (adhesive tape keratin layer, Examples 8 and 14); details: transparent adhesive tape with human skin keratin layer; negative control buffer only
Procedure: A visual qualitative test was developed in order to examine whether KBD binds to skin.
Blocking solution: Western Blocking Reagent 1921673 Roche (10× solution) diluted in TBS.
TBS: 20 mM Tris; 150 mM NaCl pH 7.5
The first step is the transfer of the outer keratin layer of the skin to a stable support. For this purpose, a transparent adhesive tape is firmly applied to depilated human skin and removed again. The test can be carried out directly on the transparent adhesive strip, or the adhering keratin layer can be transferred to a glass slide through renewed adhesion.
A visual qualitative test was used in order to examine whether the KBD-D (SEQ ID No.: 168) binds to skin.
Blocking solution: Western Blocking Reagent 1921673 Roche (10× solution) diluted in TBS
A blue colored precipitate, being a reaction of the antipolyhistidine-AP conjugate interacting with the KBD-D, was visible on the transparent adhesive tape treated with KBD-D. As negative control, a transparent adhesive tape was treated only with buffer. No significant blue coloration could be seen here.

[2] = tested on: human keratinocytes; assay: Quantitative binding to skin (Example 15)
Procedure: (§1) In order to investigate the binding strength of the KBD-D (SEQ ID No.:168) to skin and hair compared to the KBD-B (SEQ ID No.:166), a quantitative test was carried out. In this test firstly hair was incubated with KBD-B or KBD-D and excess KBD-D or -D was washed off. An antibody-peroxidase conjugate was then coupled via the His/tag of the KBD-B or -D. Nonbound antibody-peroxidase conjugate was washed off again. The bound antibody-peroxidase conjugate can convert a colorless substrate (TMB) into a colored product, which was measured photometrically at 405 nm. The intensity of the absorption indicates the amount of bound KBD-B or -D.
The test for binding to skin was carried out with human keratinocytes in microtiter plates as follows. • 2× washing with PBS/0.05% Tween 20 • addition of 1 ml of 1% BSA in PBS and incubation for 1 h at room temperature, gentle swinging movements (900 rpm). • removal of the supernatant • addition of 100 μg of KBD in PBS with 0.03% Tween 20; incubation for 2 h at room temperature and gentle swinging movements (900 rpm). • removal of the supernatant • 3× washing with PBS/0.05% Tween 20 • incubation with 1 ml of monoclonal mouse anti-tag-His6 antibodies for 2-4 h at room temperature, gentle swinging movement (900 rpm) • 3× washing with PBS/0.05% Tween 20 • addition of peroxidase substrate (1 ml/Eppendorf vessels composition see below) reaction until a blue coloration (about 90 seconds). • reaction stopped with 100 μl of 2 M H2SO4. • the absorption was measured at 405 nm.
(§2) Peroxidase Substrate (Prepared Shortly Beforehand):
0.1 ml TMB solution (42 mM TMB in DMSO) +10 ml substrate buffer (0.1 M sodium acetate pH 4.9) +14.7 μl H2O2 3% strength

[3] = tested on: hair (human); assay: Quantitative binding to hair (Example 15)
Procedure: as §1
In order to characterize the hair binding of the KBD-D compared to the KBD-B, the following binding assay was carried out:
5 mg of hair (human) were cut into sections 5 mm in length and transferred to Eppendorf vessels (protein low-bind). • addition of 1 ml of ethanol for degreasing • centrifugation, removal of ethanol and washing of the hair with H2O • centrifugation, removal of the supernatant • addition of the keratin-binding domains to be tested (coupled to tag—e.g. His6, HA etc.) in 1 ml of PBS/0.05% Tween 20; incubation for 2 h at room temperature with gentle swinging movements • centrifugation, removal of the supernatant • 3× washing with PBS/0.05% Tween 20 • incubation with 1 ml monoclonal mouse anti-tag-(His6 or HA) antibodies with peroxidase conjugate (1:2000 in PBS/0.05% Tween 20) [Monoclonal AntipolyHistidine Peroxidase Conjugate, produced in mouse, lyophilized powder, Sigma] for 2-4 h at room temperature, gentle swinging movement • 3× washing with PBS/0.05% Tween 20 • addition of peroxidase substrate (1 ml/Eppendorf vessel) • allow reaction to proceed until blue coloration (90 seconds). • stop the reaction with 100 μl of 2 M H2SO4.
The absorption was measured at 405 nm
as §2
0.1 ml TMB solution (42 mM TMB in DMSO) +10 ml substrate buffer (0.1 M sodium acetate pH 4.9) +14.7 μl H2O2 3% strength BSA=bovine serum albumin PBS=phosphate buffered salt solution Tween 20=polyoxyethylene sorbitan monolaureate, n about 20 TMB=3,5,3′,5′-tetramethylbenzidine

[4] = target: human hair keratin (human hair, cut into 5 mm sections) (human); assay: quantitative hair binding test, anti-polyHis peroxidase conjugate, TMB; details: scale: absorption at 405 nm, standardized to the surface
[5] = target: human hair keratin (human hair, cut into 5 mm sections) (human); assay: quantitative hair binding test, loss relative to untreated hair after 10% strength SDS treatment
[6] = target: human skin keratin (human); assay: quantitative skin binding test, loss relative to untreated skin after 10% strength SDS treatment
[7] = target: human skin keratin (human); assay: quantitative skin binding test (human keratinocytes in microtiter plates), anti-His antibody, TMB; details: scale: absorption at 405 nm, standardized to the surface
[8] = target: human hair keratin (human hair, cut into 5 mm sections) (human); assay: quantitative hair binding test, anti-polyHis peroxidase conjugate, TMB; after 10% strength SDS treatment; details: scale: absorption at 405 nm, standardized to the surface
[9] = target: human skin keratin (human); assay: quantitative skin binding test (human keratinocytes in microtiter plates), anti-His antibody, TMB; after 10% strength SDS treatment; details: scale: absorption at 405 nm, standardized to the surface
[10] = values standardized to the surface, after 10% strength SDS treatment
[11] = values standardized to the surface, no SDS treatment

B1: KBD-D (keratin-binding domain of human plakophilin) with N-terminal histidine anchor (SEQ ID No.: 168) (protein)
chain: MRGSHHHHHHGSACELGTMNHSPLKTALAYECFQDQDNSTLALPSDQKMKTGTSGRQRVQEQVMMTVKRQKSKSSQSSTLSHSNRGSMYDGLADNYNYGTTSRSSYYSKFQAGNGSWGYPIYNGTLKREPDNRRFSSYSQMENWSRHYPRGSCNTTGAGSDICFMQKIKASRSEPDLYCDPRGTLRKGTLGSKGQKTTQNRYSFYSTCSGQKAIKKCPVRPPSCASKQDPVYIPPISCNKDLSFGHSRASSKICSEDIECSGLTIPKAVQYLSSQDEKYQAIGAYYIQHTCFQDESAKQQVYQLGGICKLVDLLRSPNQNVQQAAAGALRNLVFRSTTNKLETRRQNGIREAVSLLRRTGNAEIQKQLTGLLWNLSSTDELKEELIADALPVLADRVIIPFSGWCDGNSNMSREVVDPEVFFNATGCLRNLSSADAGRQTMRNYSGLIDSLMAYVQNCVAASRCDDKSVENCMCVLHNLSYRLDAEVPTRYRQLEYNARNAYTEKSSTGCFSNKSDKMMNNNYDCPLPEEETNPKGSGWLYHSDAIRTYLNLMGKSKKDATLEACAGALQNLTASKGLMSSGMSQLIGLKEKGLPQIARLLQSGNSDVVRSGASLLSNMSRHPLLHRVMGNQVFPEVTRLLTSHTGNTSNSEDILSSACYTVRNLMASQPQLAKQYFSSSMLNNIINLCRSSASPKAAEAARLLLSDMWSSKELQGVLRQQGFDRNMLGTLAGANSLRNFTSRF
Which “binding to skin keratin (blue colored precipitate)” value [1] does the source give for B1 here?
The value was “has bound to the skin keratin”.

And the “Relative absorption loss after 10% strength SDS treatment in %, skin” value ([2]; relative to untreated skin)?
Its value is 15%.

And the “binding to skin compared with hair (in words)” value ([2]; summary of Tab. 10)?
The value was “more strongly to skin”.

And the “Absorption at 405 nm, binding to skin after 10% strength SDS treatment” value [2, 10]?
The value was 3.15.

And the “Absorption at 405 nm, binding to skin” value [2, 11]?
The value was 3.69.

And the “influence of washing with SDS solution on binding” value ([2]; washing with an up to 10% strength SDS solution, in contrast to KBD-B)?
The value was “only more weakly influenced”.

And the “Relative absorption loss after 10% strength SDS treatment in %, hair” value ([3]; relative to untreated hair)?
Its value is 30%.

What about the “binding to hair (in words)” value ([3]; summary of Tab. 10) of the same molecule?
Its value is “can bind to hair”.

And the “Absorption at 405 nm, binding to hair after 10% strength SDS treatment” value [3, 10]?
Its value is 0.62.

What about the “Absorption at 405 nm, binding to hair” value [3, 11] of the same molecule?
Its value is 0.88.

What about the Absorption at 405 nm [4] of the same molecule?
The Absorption at 405 nm was 0.88.

And the Relative absorption loss after 10% strength SDS treatment in % [5]?
Its Relative absorption loss after 10% strength SDS treatment in % is 30%.

And the Relative absorption loss after 10% strength SDS treatment in % [6]?
The Relative absorption loss after 10% strength SDS treatment in % was 15%.

What about the Absorption at 405 nm [7] of the same molecule?
Its Absorption at 405 nm is 3.69.

And the Absorption at 405 nm [8]?
Its Absorption at 405 nm is 0.62.

What about the Absorption at 405 nm [9] of the same molecule?
Its Absorption at 405 nm is 3.15.
